In publication PMC4672726 one finds fold binding over the inactive analog HisRALF(Δ2–8) data, which are given here for one substance.

This assay addresses hemagglutinin (HA)–tagged FERONIA (FER-HA) (Arabidopsis thaliana) (UniProt Q9SCZ4). Put plainly: co-IP.

Sequence of hemagglutinin (HA)–tagged FERONIA (FER-HA) (Arabidopsis thaliana) (Q9SCZ4 28-895): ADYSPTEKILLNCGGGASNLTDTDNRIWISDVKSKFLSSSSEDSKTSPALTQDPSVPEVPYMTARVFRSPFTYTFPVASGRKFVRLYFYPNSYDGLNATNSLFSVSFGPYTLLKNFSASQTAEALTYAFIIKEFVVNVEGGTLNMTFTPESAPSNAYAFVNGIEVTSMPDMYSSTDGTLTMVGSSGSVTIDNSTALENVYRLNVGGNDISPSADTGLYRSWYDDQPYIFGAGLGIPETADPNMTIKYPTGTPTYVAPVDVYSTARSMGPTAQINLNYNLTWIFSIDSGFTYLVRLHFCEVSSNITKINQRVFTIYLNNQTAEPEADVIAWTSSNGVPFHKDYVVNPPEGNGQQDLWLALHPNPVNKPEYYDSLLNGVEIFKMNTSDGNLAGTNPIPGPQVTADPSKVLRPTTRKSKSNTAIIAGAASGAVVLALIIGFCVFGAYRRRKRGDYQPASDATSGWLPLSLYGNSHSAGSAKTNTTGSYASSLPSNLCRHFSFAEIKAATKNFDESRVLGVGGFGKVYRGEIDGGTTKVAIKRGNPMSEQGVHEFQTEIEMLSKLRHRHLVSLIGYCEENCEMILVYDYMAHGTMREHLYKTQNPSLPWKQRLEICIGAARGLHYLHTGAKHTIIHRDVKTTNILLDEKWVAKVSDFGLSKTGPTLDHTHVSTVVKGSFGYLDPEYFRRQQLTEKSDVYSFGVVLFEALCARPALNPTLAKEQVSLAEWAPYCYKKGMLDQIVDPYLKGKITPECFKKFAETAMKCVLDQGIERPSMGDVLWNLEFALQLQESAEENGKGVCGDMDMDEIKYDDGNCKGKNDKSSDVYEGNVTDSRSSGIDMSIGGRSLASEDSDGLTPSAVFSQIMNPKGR

“HisRALF (RALF, rapid alkalinization factor, N-terminal 6×His fusion peptide) (from UniProt Q9SRY3 72-120)”: the fold binding over the inactive analog HisRALF(Δ2–8) lay within 4.5 to 6 fold.
